Columns and labels:
[1] = target: anti-GBB5-A1 scFv; assay: ELISA; conditions: chain shown with the change; biotinylated peptides immobilized in streptavidin-coated microtiter plate wells; soluble scFv protein; parent: est. 100; read off a plot
[2] = target: anti-GBB5-H9 scFv; assay: ELISA; conditions: chain shown with the change; biotinylated peptides immobilized in streptavidin-coated microtiter plate wells; soluble scFv protein; parent: est. 100; read off a plot
[3] = target: anti-GBB5-H9 scFv-Fc (human); assay: SEC; size exclusion chromatography and denaturing SDS-PAGE of the purified scFv-Fc; conditions not given

Chain of anti-GBB5-A1 scFv (chain, as listed by the source, chain 1 of 2): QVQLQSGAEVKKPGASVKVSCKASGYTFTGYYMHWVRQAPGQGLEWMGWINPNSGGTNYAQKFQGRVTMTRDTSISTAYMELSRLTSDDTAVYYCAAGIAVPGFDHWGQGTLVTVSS
Chain of anti-GBB5-A1 scFv (chain, as listed by the source, chain 2 of 2): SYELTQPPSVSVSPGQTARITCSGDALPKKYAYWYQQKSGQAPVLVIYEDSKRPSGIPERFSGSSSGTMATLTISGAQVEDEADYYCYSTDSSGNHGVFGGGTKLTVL

B1: GBB5 peptide (Guanine Nucleotide-Binding Protein Beta 5) R13A (peptide)
chain: GSGSKLHDVELHQVAEAV
In the case of B1, the percent of parent (% signal of wild type) [1] is reported as 56 and the percent of parent (% signal of wild type) [2] is reported as 1.7.

B2: GBB5 peptide (Guanine Nucleotide-Binding Protein Beta 5) K1A (peptide)
chain: GSGSALHDVELHQVAERV
Work on B2 yielded a percent of parent (% signal of wild type) [1] of 0.2 and a percent of parent (% signal of wild type) [2] of 74.

B3: anti-GBB5-H9 scFv-Fc (Fc fusion)
VH: EVQLVQSGGGLVQPGGSLRLSCAASGFTVSSNYMSWVRQAPGKGLEWVSSISSSSSYIYYADSVKGRFTISRDNAKNSLYLQMNSLRAEDTAVYYCARSYPFDYWGQGTLVTVSS
VL: NFMLTQPHSVSESPGKAVTISCTGSSGDVARNYVQWYQQRPGSAPIIVIYEDTQRPSGVPDRFSGSIDSSSNSASLTISGLTTEDEADYYCQSYDGHNVIFGGGTKLTVL
Binder B3 has a stoichiometry N [3] of 2.

B4: GBB5 peptide (Guanine Nucleotide-Binding Protein Beta 5) D4A (peptide)
chain: GSGSKLHAVELHQVAERV
B4 showed a percent of parent (% signal of wild type) [1] of 0.3 and a percent of parent (% signal of wild type) [2] of 1.9.

B5: GBB5 peptide (Guanine Nucleotide-Binding Protein Beta 5) V14A (peptide)
chain: GSGSKLHDVELHQAAERV
With B5 the percent of parent (% signal of wild type) [1] was 51 and the percent of parent (% signal of wild type) [2] was 55.
